Experiments:
[1] = target: LacI-mCherry-E1A(121–223) (human adenovirus 2) (UniProt P03254); assay: recruitment to a lacO array (colocalisation of a YFP fusion with a LacI-tethered fusion, confocal microscopy); CHO-A03.1 cells with ~10,000 integrated lacO sites, cotransfected with 2 ug LacI-CFP-E1A or LacI-mCherry-E1A vector and 2 ug YFP-MED6, YFP-MED23 or YFP-p300 vector; fixed after 48 h; score = % of scored cells with colocalisation
[2] = target: LacI-mCherry-E1A(133–178) (human adenovirus 2) (UniProt P03254); assay: as above
[3] = target: LacI-mCherry-E1A(133–205) (human adenovirus 2) (UniProt P03254); assay: as above
[4] = target: LacI-mCherry-E1A(140–205) (human adenovirus 2) (UniProt P03254); assay: as above
[5] = target: LacI-mCherry-E1A(133–189) (human adenovirus 2) (UniProt P03254); assay: as above
[6] = target: LacI-mCherry-E1A(140–189) (human adenovirus 2) (UniProt P03254)

Q: For YFP-p300, Q09472 1-2414, which colocalization score (% of cells) [1] is on record?
A: 86%

Q: What about the colocalization score (% of cells) [2] of the same substance?
A: 64%

Q: What about the colocalization score (% of cells) [3] of the same substance?
A: 73%

Q: What about the colocalization score (% of cells) [4] of the same substance?
A: 64%

Q: And the colocalization score (% of cells) [5]?
A: 86%

Q: And the luciferase reporter with eight lacO sites upstream of the E1B promoter, transient transfection of CHO-K1 cells; activity relative to LacI-mCherry-E1A(121–223) [6]?
A: 10%

Source: PMC6146688
